Target: T1, EBP1-GST (UniProt Q96327-3 1-401)
T1 sequence: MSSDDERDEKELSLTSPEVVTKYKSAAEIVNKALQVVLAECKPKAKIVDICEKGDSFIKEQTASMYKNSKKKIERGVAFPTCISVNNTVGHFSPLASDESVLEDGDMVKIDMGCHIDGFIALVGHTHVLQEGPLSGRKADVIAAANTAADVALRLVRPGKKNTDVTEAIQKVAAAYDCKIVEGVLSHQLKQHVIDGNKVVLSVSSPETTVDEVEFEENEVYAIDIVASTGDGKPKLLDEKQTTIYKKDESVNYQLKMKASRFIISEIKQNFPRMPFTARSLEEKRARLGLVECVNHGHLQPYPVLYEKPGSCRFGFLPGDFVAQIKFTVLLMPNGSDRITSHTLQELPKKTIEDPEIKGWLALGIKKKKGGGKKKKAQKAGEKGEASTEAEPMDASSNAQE
Experiment: EMSA; 100 ng EBP1-GST, 100 pg probe; competition with unlabeled CCACGTC DNA; 10 mM Tris pH 7.5, 50 mM KCl, 1 mM MgCl2, 5% glycerol, 0.5 mM DTT, 0.2 mg/mL BSA, 0.5 mg/mL polyglutamate; room temperature 20 min; 6% native PAGE
Conditions: protein: recombinant; tags: GST; label: FITC; blunt

B1: CML38 promoter CCACGTC probe (dsDNA)
DNA 1: AACACTAATCTACCACGTCTATTACACACA
DNA 2: TGTGTGTAATAGACGTGGTAGATTAGTGTT
  binding result: binds
